Measured values reported in the supplement of paper PMC10724198.
± gives the standard deviation of the averaged measurements.

Tested on: Saccharomyces cerevisiae
Experiment: protein stability index of tFT-peptide fusion (C-terminal peptide) (PSI (0-1 scale)); higher = more stable (slower turnover)
Conditions: genetic background: wild type; temperature: 30 C
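Further: PSI is a weighted mean of sequencing reads over stability bins, variants kept only with over 10 reads, mCherry proximal and sfGFP distal, peptide attached via GGGS linker.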

Row | Sequence | protein stability index
1 | PGSKLGPAASRG | 0.663 ± 0.071
2 | PGSPPGLERLGR | 0.694 ± 0.059
3 | PGSPPPPDTLSP | 0.701 ± 0.034
4 | PGTLPDDLASTR | 0.673 ± 0.034
5 | PGVGRLGRTPVS | 0.6959 ± 0.0054
6 | PHHLLTAHPPPA | 0.668 ± 0.035
7 | PHLAAPAPALQD | 0.613 ± 0.056
8 | PHLPPLLTTTPS | 0.61 ± 0.023
9 | PHLPPQPPSPPA | 0.716 ± 0.045
10 | PHLRPPPPPPPQ | 0.6892 ± 0.0049
11 | PHLSRSVSKVLR | 0.659 ± 0.066
12 | PHPLPLPLPLSP | 0.7134 ± 0.0017
13 | PHPPPPPPPHSP | 0.715 ± 0.08
14 | PHPPPTAPGPSP | 0.67 ± 0.00026
15 | PHPRFYPSTPPP | 0.64827 ± 7.8e-06
16 | PHPRRSTKTQRR | 0.7878 ± 0.0045
17 | PHPTPGTPEPRD | 0.744 ± 0.17
18 | PHSLPPPTPPHS | 0.629 ± 0.047
19 | PHSPLSPAPQSP | 0.787 ± 0.02
20 | PHTFNVRPFHPD | 0.674 ± 0.034
21 | PHTLKPNPLSTA | 0.61 ± 0.063
22 | PHTLPPLLRHAP | 0.693 ± 0.015
23 | PHVCPVLSAAGR | 0.629 ± 0.044
24 | PHYCSAYTAGHG | 0.72 ± 0.036
25 | PIELTQRASVPP | 0.6592 ± 0.0052
26 | PIFPALPRLSPS | 0.725 ± 0.022

Row | Sequence | protein stability index
27 | PIFPFSFFLPLI | 0.605 ± 0.011
28 | PIFPPLTSPSPP | 0.68 ± 0.032
29 | PILSGILFMSPP | 0.755 ± 0.0092
30 | PIPPRLPPPPPP | 0.589 ± 0.057
31 | PISLSFPPPLHP | 0.65 ± 0.017
32 | PKKNQSKQRKKT | 0.708 ± 0.05
33 | PKTPRFWLLFPA | 0.699 ± 0.022
34 | PKTSTPPPTSPA | 0.675 ± 0.0073
35 | PLALARSPPPSP | 0.671 ± 0.02
36 | PLALLHSHPPAN | 0.677 ± 0.0066
37 | PLAPLLSPPAFP | 0.808 ± 0.12
38 | PLAPPLPPPGPL | 0.74 ± 0.022
39 | PLAPPSPPPAPP | 0.6618 ± 0.00085
40 | PLCVICRRWGAS | 0.646 ± 0.046
41 | PLEPDFLIGGNA | 0.807 ± 0.16
42 | PLEYPAQATMKP | 0.657 ± 0.021
43 | PLFLPLVPPQIL | 0.682 ± 0.028
44 | PLFPPPSLLTPH | 0.719 ± 0.14
45 | PLGGPYNSHMFT | 0.956 ± 0.038
46 | PLHLLPPPSSYP | 0.759 ± 0.033
47 | PLHPDSCGSLSS | 0.647 ± 0.038
48 | PLHPPATPAATT | 0.69 ± 0.025
49 | PLHRPLPRPPSP | 0.745 ± 0.019
50 | PLLHDSHAIIPH | 0.716 ± 0.079
51 | PLLPLLPSPASP | 0.674 ± 0.0098
52 | PLLPRLPPLSPP | 0.691 ± 0.07

Row | Sequence | protein stability index
53 | PLLRRLFPLSSR | 0.608 ± 0.052
54 | PLLYSDRPSIFL | 0.663 ± 0.026
55 | PLNPSPSCPPTL | 0.676 ± 0.023
56 | PLPAPSPLPSPL | 0.735 ± 0.038
57 | PLPCLPPAGSTP | 0.818 ± 0.02
58 | PLPFSTSPYAGR | 0.675 ± 0.011
59 | PLPHPPPLALRT | 0.655 ± 0.063
60 | PLPKARRHHSPA | 0.653 ± 0.033
61 | PLPLPSLSAIFL | 0.677 ± 0.016
62 | PLPLPSPPPASP | 0.732 ± 0.025
63 | PLPLSPLLLPPR | 0.6836 ± 0.0045
64 | PLPPAPPSLSPP | 0.651 ± 0.01
65 | PLPPHPPPPRPL | 0.698 ± 0.035
66 | PLPPLAPPHRSP | 0.682 ± 0.091
67 | PLPPLLAGAGLS | 0.704 ± 0.018
68 | PLPPLTPASPHP | 0.72 ± 0.035
69 | PLPPPLPASSPP | 0.681 ± 0.045
70 | PLPPPLPLSSPP | 0.67 ± 0.012
71 | PLPPPPAHPPPP | 0.616 ± 0.03
72 | PLPPPPPLPLSP | 0.693 ± 0.07
73 | PLPPPPPPIPLT | 0.702 ± 0.14
74 | PLPPPPPPPSSP | 0.726 ± 0.011
75 | PLPPPPVSLPAP | 0.617 ± 0.064
76 | PLPPRPHPPPPY | 0.695 ± 0.037
77 | PLPPRPPPLPLP | 0.716 ± 0.013
78 | PLPPTPPPALSQ | 0.7 ± 0.018

Row | Sequence | protein stability index
79 | PLPRLPLLPPLR | 0.67 ± 0.045
80 | PLPSCTLCRPAL | 0.695 ± 0.03
81 | PLPSLSPLPPPL | 0.701 ± 0.017
82 | PLPSPSYLKSPC | 0.705 ± 0.013
83 | PLPSVLFCLTRW | 0.665 ± 0.02
84 | PLPTLPFPCSPS | 0.706 ± 0.016
85 | PLPVLFFFSACS | 0.661 ± 0.043
86 | PLRISQLDVVRS | 0.655 ± 0.045
87 | PLRPLPTPRPPP | 0.686 ± 0.0071
88 | PLRYRPPPPPPP | 0.672 ± 0.031
89 | PLSCFIPPVSSW | 0.666 ± 0.027
90 | PLSPLAPPPAPS | 0.661 ± 0.075
91 | PLSPNIHQRPPA | 0.75 ± 0.0096
92 | PLSPPPPFPFPP | 0.71 ± 0.064
93 | PLSPPVSLPLTP | 0.672 ± 0.098
94 | PLSPSAVGCPGF | 0.645 ± 0.16
95 | PLSPSFAPPSPA | 0.69672 ± 0.00044
96 | PLSPTTRTRSQS | 0.642 ± 0.067
97 | PLSTGLPFPRSP | 0.718 ± 0.028
98 | PLTACPSAPTLP | 0.667 ± 0.0078
99 | PLTGSLIPLFPL | 0.732 ± 0.029
100 | PLTPPRLPRPFH | 0.7123 ± 0.0065
101 | PLVAGRVIVTLR | 0.554 ± 0.011
102 | PLVPISPLPYLP | 0.737 ± 0.012
103 | PLVPPPADPLCV | 0.63 ± 0.0071
104 | PLVRGSLGALGR | 0.657 ± 0.12

Row | Sequence | protein stability index
105 | PLYSKHPTRFFP | 0.714 ± 0.011
106 | PLYTSFSPSFYL | 0.669 ± 0.043
107 | PMFESFHLPAPI | 0.715 ± 0.018
108 | PNAFTEPTHPGR | 0.742 ± 0.066
109 | PNFYPLWLNLPL | 0.813 ± 0.086
110 | PNLIFHHSFSFL | 0.692 ± 0.031
111 | PNPTPYRRPCPP | 0.6846 ± 0.0041
112 | PNTSVAATPHDF | 0.67 ± 0.085
113 | PNVSPTPPYSSP | 0.691 ± 0.023
114 | PNYQRRTKTNSP | 0.703 ± 0.04
115 | PPAALPPSTLFS | 0.673 ± 0.04
116 | PPAFFPHSRPLL | 0.598 ± 0.038
117 | PPAGCSPSPRSP | 0.66 ± 0.056
118 | PPALPPTRPPVS | 0.696 ± 0.047
119 | PPALRPNPPLPL | 0.7769 ± 0.0016
120 | PPAPLPSPRRSL | 0.696 ± 0.065
121 | PPAPPPPLLNLP | 0.714 ± 0.014
122 | PPAPPTSLPSPL | 0.726 ± 0.019
123 | PPAPSPPQPSPL | 0.686 ± 0.0088
124 | PPAPSPPVPPQL | 0.727 ± 0.026
125 | PPAPSSLPSPPS | 0.715 ± 0.017
126 | PPAPTPLSPLAS | 0.693 ± 0.051
127 | PPAPTPSPSPPP | 0.68 ± 0.1
128 | PPARATPHDRCP | 0.724 ± 0.037
129 | PPASLPPPTAFN | 0.764 ± 0.049
130 | PPASLRRPRSYL | 0.748 ± 0.025

Row | Sequence | protein stability index
131 | PPASPSPSLLSP | 0.6491 ± 0.0025
132 | PPASSPPSRPPP | 0.62626 ± 0.00058
133 | PPATPPPPPPFL | 0.68 ± 0.15
134 | PPATPPRPLLPP | 0.672 ± 0.091
135 | PPCPVTSFRPSI | 0.755 ± 0.05
136 | PPDPPPHASPAP | 0.72 ± 0.03
137 | PPDRNPANTSCD | 0.638 ± 0.029
138 | PPFPPDTLPLLP | 0.746 ± 0.017
139 | PPFPPPCFPPPL | 0.72 ± 0.0084
140 | PPFRPFTSPVTY | 0.579 ± 0.031
141 | PPFSPSPPHVCP | 0.673 ± 0.045
142 | PPFVLLVPTSLS | 0.68 ± 0.018
143 | PPGLPLSPCPPP | 0.685 ± 0.061
144 | PPGSFWLQARVR | 0.705 ± 0.071
145 | PPGYGISYLLIE | 0.66 ± 0.07
146 | PPHAYTSTPSLF | 0.67 ± 0.028
147 | PPHGPPPLPPPS | 0.678 ± 0.15
148 | PPHIIPHPKAHT | 0.687 ± 0.017
149 | PPHLPPPPSPSV | 0.6729 ± 0.0053
150 | PPHPAPPLQPQT | 0.64 ± 0.14
151 | PPHPPPVTPHAS | 0.722 ± 0.029
152 | PPHPPRCRRSPC | 0.718 ± 0.037
153 | PPHPPYPPQPSL | 0.7021 ± 0.005
154 | PPHPQRANAPGH | 0.6615 ± 0.0057
155 | PPHTSPLSPRPP | 0.658 ± 0.052
156 | PPIPLPPLAPPL | 0.699 ± 0.038

Row | Sequence | protein stability index
157 | PPLALLLSPVPP | 0.688 ± 0.046
158 | PPLAPASPSPLP | 0.698 ± 0.023
159 | PPLCTTPTPRRV | 0.735 ± 0.041
160 | PPLFPPPPPLPR | 0.718 ± 0.027
161 | PPLFTLSFSHFV | 0.679 ± 0.021
162 | PPLHPPLPPPPS | 0.71 ± 0.06
163 | PPLLALSASRVT | 0.698 ± 0.017
164 | PPLLLLRRRSPS | 0.699 ± 0.062
165 | PPLLPPPPPPAP | 0.666 ± 0.032
166 | PPLLPYHPTRFD | 0.713 ± 0.012
167 | PPLLRAPLLPPC | 0.708 ± 0.021
168 | PPLPAPPPLRPP | 0.606 ± 0.012
169 | PPLPAPSPPAPP | 0.68 ± 0.022
170 | PPLPDSPPPVPP | 0.633 ± 0.017
171 | PPLPFPSLPTPP | 0.696 ± 0.042
172 | PPLPLPPLALTR | 0.722 ± 0.037
173 | PPLPLPPRPTPP | 0.716 ± 0.071
174 | PPLPPLSPAPPR | 0.681 ± 0.0073
175 | PPLPPPHLAFLH | 0.685 ± 0.035
176 | PPLPPPIPLRPP | 0.539 ± 0.02
177 | PPLPPPLPHRPL | 0.716 ± 0.078
178 | PPLPPPPLLPAP | 0.726 ± 0.019
179 | PPLPPPPSPALL | 0.75 ± 0.019
180 | PPLPPPTPRPAP | 0.754 ± 0.058
181 | PPLPPPVYHSLP | 0.6855 ± 0.0027
182 | PPLPRPPLPTSL | 0.649 ± 0.045

Row | Sequence | protein stability index
183 | PPLPYPCPPVFV | 0.581 ± 0.012
184 | PPLRPPAPEPSP | 0.659 ± 0.0092
185 | PPLSHPPPPLPL | 0.681 ± 0.037
186 | PPLSLRPDLPVF | 0.649 ± 0.0098
187 | PPLSPPHRPPHS | 0.71 ± 0.065
188 | PPLSPSLPPSPS | 0.681 ± 0.0089
189 | PPLTSSVCFSLI | 0.665 ± 0.098
190 | PPNGAATTQDRL | 0.699 ± 0.011
191 | PPNPSTPSACPP | 0.717 ± 0.052
192 | PPPAPLPLPAST | 0.645 ± 0.019
193 | PPPAPLRSLSTP | 0.701 ± 0.024
194 | PPPAPPPPLPPR | 0.688 ± 0.028
195 | PPPAPRPPLSLP | 0.621 ± 0.017
196 | PPPAPSPLPLFP | 0.7 ± 0.045
197 | PPPAPTQTALPP | 0.7028 ± 0.0057
198 | PPPATNSLPGFE | 0.672 ± 0.0099
199 | PPPAWTPPPRTA | 0.7163 ± 0.001
200 | PPPDHSPPPCPP | 0.6857 ± 0.0037
201 | PPPDSSLPLGSP | 0.688 ± 0.0081
202 | PPPGPLFPSFPL | 0.663 ± 0.051
